Assay results from article PMC11528095, “PCDH10 is a neuronal receptor for western equine encephalitis virus” (Cell Research, 2024).

Target: T1, His-tagged soluble human PCDH10 (human)
T1 construct: also called sohPCDH10; sohPCDH10-His
Assay: BLI
Conditions: both partners purified

B1: WEEV virus-like particles (spike E2-E1) (complex)
chain 1: SITDDFTLTSPYLGFCPYCRHSAPCFSPIKIENVWDESDDGSIRIQVSAQFGYNQAGTADVTKFRYMSFDHDHDIKEDSMDKIAISTSGPCRRLGHKGYFLLAQCPPGDSVTVSITSGASENSCTVEKKIRRKFVGREEYLFPPVHGKLVKCHVYDHLKETSAGYITMHRPGPHAYKSYLEEASGEVYIKPPSGKNVTYECKCGDYSTGIVSTRTKMNGCTKAKQCIAYKSDQTKWVFNSPDLIRHTDHSVQGKLHIPFRLTPTVCPVPLAHTPTVTKWFKGITLHLTATRPTLLTTRKLGLRADATAEWITGTTSRNFSVGREGLEYVWGNHEPVRVWAQESAPGDPHGWPHEIIIHYYHRHPVYTVIVLCGVALAILVGTASSAACIAKARRDCLTPYALAPNATVPTALAVLCCIRPTNA
chain 2: FEHATTVPNVPGIPYKALVERAGYAPLNLEITVVSSELTPSTNKEYVTCRFHTVIPSPQVKCCGSLECKASSKADYTCRVFGGVYPFMWGGAQCFCDSENTQLSEAYVEFAPDCTIDHAVALKVHTAALKVGLRIVYGNTTAHLDTFVNGVTPGSSRDLKVIAGPISAAFSPFDHKVVIRKGLVYNYDFPEYGAMKPGAFGDIQASSLDATDIVARTDIRLLKPSVKNIHVPYTQAVSGYEMWKNNSGRPLQETAPFGCKIEVEPLRASNCAYGHIPISIDIPDAAFVRSSESPTILEVSCTVADCIYSADFGGSLTLQYKADREGHCPVHSHSTTAVLKEATTHVTAVGSITLHFSTSSPQANFIVSLCGKKTTCNAECKPPADHIIGEPHKVDQEFQAAVSKTSWNWLLALFGGASSLIVVGLIVLVCSSMLINTRR
  Kd: 4.66 nM
